Experimental data reported in doi:10.1101/2022.02.05.479199.

Key:
[1] = biological target: RPA-DBD-A^Cy3 (S. cerevisiae) (UniProt P22336); assay: FRET or BRET
[2] = biological target: RPA-DBD-D^Cy3 (S. cerevisiae) (UniProt P22336); assay: FRET or BRET
[3] = biological target: RPA-DBD-D^MB543 (S. cerevisiae) (UniProt P22336); assay: C-trap optical tweezers with confocal fluorescence
[4] = biological target: F-A-B-DBD-A^MB543 (S. cerevisiae); assay: other fluorescence titration
[5] = biological target: RPA-DBD-A^MB543 (S. cerevisiae) (UniProt P22336); assay: other fluorescence titration

kobs (single exponential model) [1]	kobs (single-step model) [1]	kobs,1 (two-step model) [2]	kobs,2 (two-step model) [2]	t1/2 of dissociation [3]	Kd [4]	Kd [5]	Binder
0.62 s⁻¹	0.2 s⁻¹	3.5 s⁻¹	0.2 s⁻¹	5 s	–	–	Rtt105^Cy5 (natural protein, Cy5 (maleimide) on Cys-12) MYSNHNLNSDDCSFDWNEEKAAELQRTGVSFDRSLTPQSLRTSTRRLSEENKQQSGTMHIDTSPSVVSDIISSRRDRSQDFFGPHSSSPIAPSERQRADQRSRLESMRLTRRRDKMTKVRGGLEKMEEMIMQGEHLREMQRLKQEAQKNALPSDMAEYMEWQNNEDLEDDELLAFIEKQETYKNELEHFLNNANKNVYENNSYPNSHT
–	–	–	–	–	33.9 nM	61.1 nM	Regulator of Ty1 Transposition 105 (Rtt105) (natural protein) MYSNHNLNSDDCCFDWNEEKAAELQRTGVSFDRSLTPQSLRTSTRRLSEENKQQSGTMHIDTSPSVVSDIISSRRDRSQDFFGPHSSSPIAPSERQRADQRSRLESMRLTRRRDKMTKVRGGLEKMEEMIMQGEHLREMQRLKQEAQKNALPSDMAEYMEWQNNEDLEDDELLAFIEKQETYKNELEHFLNNANKNVYENNSYPNSHT
